Measured values taken from paper PMC7116848 (Nature, 2019).
One block for each molecule: values may come before it.

What was measured:
[1] = target: T1, Mgm1 (truncated s-Mgm1) (Thermochaetoides thermophila, UniProt G0SGC7); assay: isothermal titration calorimetry; format: binding
T1 sequence (G0SGC7 219-912): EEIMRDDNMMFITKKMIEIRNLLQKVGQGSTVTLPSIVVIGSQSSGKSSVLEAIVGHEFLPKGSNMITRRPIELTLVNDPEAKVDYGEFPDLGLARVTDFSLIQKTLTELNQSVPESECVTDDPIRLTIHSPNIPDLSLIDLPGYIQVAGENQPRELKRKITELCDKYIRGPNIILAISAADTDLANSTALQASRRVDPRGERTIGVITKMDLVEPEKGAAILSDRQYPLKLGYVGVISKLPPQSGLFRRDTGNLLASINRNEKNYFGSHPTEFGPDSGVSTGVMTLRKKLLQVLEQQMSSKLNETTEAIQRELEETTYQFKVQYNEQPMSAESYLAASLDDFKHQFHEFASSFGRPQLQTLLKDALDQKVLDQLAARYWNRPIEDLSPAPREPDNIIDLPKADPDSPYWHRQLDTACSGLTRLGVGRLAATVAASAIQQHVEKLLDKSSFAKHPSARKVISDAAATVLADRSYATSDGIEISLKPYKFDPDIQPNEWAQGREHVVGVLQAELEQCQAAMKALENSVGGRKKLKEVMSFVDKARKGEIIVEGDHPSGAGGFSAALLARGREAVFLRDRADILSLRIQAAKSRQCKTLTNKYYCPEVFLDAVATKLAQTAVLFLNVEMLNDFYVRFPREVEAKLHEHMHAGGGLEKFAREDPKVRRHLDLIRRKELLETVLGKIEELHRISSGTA

[2] = target: the molecule itself; assay: AUC
[3] = target: the molecule itself; assay: crystal structure

Kd [1]: 9 ± 3 µM
Molecule: Nc1nc2c(ncn2[C@@H]2O[C@H](COP(=O)(O)OP(=O)(O)OP(O)(O)=S)[C@@H](O)[C@H]2O)c(=O)[nH]1 [GTPγS]

B1: Chaetomium thermophilum Mgm1 (amino acids 219-912), truncated s-Mgm1 isoform (domain or fragment, UniProt G0SGC7 219-912, looked up)
chain: EEIMRDDNMMFITKKMIEIRNLLQKVGQGSTVTLPSIVVIGSQSSGKSSVLEAIVGHEFLPKGSNMITRRPIELTLVNDPEAKVDYGEFPDLGLARVTDFSLIQKTLTELNQSVPESECVTDDPIRLTIHSPNIPDLSLIDLPGYIQVAGENQPRELKRKITELCDKYIRGPNIILAISAADTDLANSTALQASRRVDPRGERTIGVITKMDLVEPEKGAAILSDRQYPLKLGYVGVISKLPPQSGLFRRDTGNLLASINRNEKNYFGSHPTEFGPDSGVSTGVMTLRKKLLQVLEQQMSSKLNETTEAIQRELEETTYQFKVQYNEQPMSAESYLAASLDDFKHQFHEFASSFGRPQLQTLLKDALDQKVLDQLAARYWNRPIEDLSPAPREPDNIIDLPKADPDSPYWHRQLDTACSGLTRLGVGRLAATVAASAIQQHVEKLLDKSSFAKHPSARKVISDAAATVLADRSYATSDGIEISLKPYKFDPDIQPNEWAQGREHVVGVLQAELEQCQAAMKALENSVGGRKKLKEVMSFVDKARKGEIIVEGDHPSGAGGFSAALLARGREAVFLRDRADILSLRIQAAKSRQCKTLTNKYYCPEVFLDAVATKLAQTAVLFLNVEMLNDFYVRFPREVEAKLHEHMHAGGGLEKFAREDPKVRRHLDLIRRKELLETVLGKIEELHRISSGTA
Kd [2]: 1 µM

B2: Seleno-methionine substituted Chaetomium thermophilum Mgm1 (amino acids 219-912) (domain or fragment, UniProt G0SGC7 219-912, looked up)
chain: EEIMRDDNMMFITKKMIEIRNLLQKVGQGSTVTLPSIVVIGSQSSGKSSVLEAIVGHEFLPKGSNMITRRPIELTLVNDPEAKVDYGEFPDLGLARVTDFSLIQKTLTELNQSVPESECVTDDPIRLTIHSPNIPDLSLIDLPGYIQVAGENQPRELKRKITELCDKYIRGPNIILAISAADTDLANSTALQASRRVDPRGERTIGVITKMDLVEPEKGAAILSDRQYPLKLGYVGVISKLPPQSGLFRRDTGNLLASINRNEKNYFGSHPTEFGPDSGVSTGVMTLRKKLLQVLEQQMSSKLNETTEAIQRELEETTYQFKVQYNEQPMSAESYLAASLDDFKHQFHEFASSFGRPQLQTLLKDALDQKVLDQLAARYWNRPIEDLSPAPREPDNIIDLPKADPDSPYWHRQLDTACSGLTRLGVGRLAATVAASAIQQHVEKLLDKSSFAKHPSARKVISDAAATVLADRSYATSDGIEISLKPYKFDPDIQPNEWAQGREHVVGVLQAELEQCQAAMKALENSVGGRKKLKEVMSFVDKARKGEIIVEGDHPSGAGGFSAALLARGREAVFLRDRADILSLRIQAAKSRQCKTLTNKYYCPEVFLDAVATKLAQTAVLFLNVEMLNDFYVRFPREVEAKLHEHMHAGGGLEKFAREDPKVRRHLDLIRRKELLETVLGKIEELHRISSGTA
modifications: seleno-methionine substituted for methionine
binding result [3]: binds
